Assay results reported in US8034579B2, “Proteins with enhanced functionality and methods of making novel proteins using circular permutation” (Emory University, priority 2005, dated 2011).

Columns and labels:
[1] = substrate: CCCC(=O)Oc1ccc([N+](=O)[O-])cc1; assay: Initial rate of hydrolysis of p-nitrophenol butyrate (pNB), wild type; assay type: biochemical, Candida antarctica; conditions: other: wild type, 50 mM K-phosphate pH 7.5, room temperature
Excerpt: (§1) Kinetic analysis of protein variants: To examine the impact of circular permutation on catalysis eleven functional CALB variants with termini in or near the active site were selected for detailed kinetic characterization. The locations of the termini in these variants are shown on the structure of CALB in FIG. 6; the numbers correspond to the amino acid residue of the new terminus. Following overexpression in P. pastoris, the selected circularly permuted proteins were purified to homogeneity. The catalytic performance of these variants was determined in activity assays with two standard lipase substrates, measuring the initial rates of hydrolysis of the chromogenic substrate p-nitrophenol butyrate (pNB) and the fluorogenic substrate 6,8-difluoro-4-methylumbelliferyl (DiFMU) octanoate.
(§2) The overexpression and purification of wild type CALB was performed as described in Rotticci-Mulder, J. C. et al., Protein Expr Purif 2001, 21, (3), 386-92, which is hereby incorporated by reference. The same protocol was adopted for the isolation of circular permutation variants of CALB. Briefly, pPIC9-ca/B was linearized by SacI digestion and electroporated into P. pastoris cells (GS115). […]
(§3) Lipase activity was determined by measuring the initial hydrolysis rate of p-NB and DiFMU octanoate at room temperature on a Synergy-HT microtiterplate reader (Bio-Tek Instruments, Winooski, Vt.). Stock solutions of p-NB (200 mM) and DiFMU octanoate (3 mM) were prepared in DMSO. p-NB hydrolysis over a substrate range of 0-1.6 mM was measured in 50 mM K-phosphate buffer (pH 7.5) at 400 nm ( ? for p-NB=13260 M^1 cm^−1) as described in Bender, M. L. et al., J Am Chem Soc 1968, 90, (1), 201-7, which is hereby incorporated by reference. The rate of DiFMU octanoate hydrolysis was determined by measuring the DiFMU formation over a substrate range of 0-12 μM in 50 mM K-phosphate buffer (pH 7.0) at an excitation/emission wavelength 360/460 nm. Kinetic constants were calculated by fitting the initial rates to the Michaelis-Menten equation using the Origin® software (version 7; OriginLab Corporation).

[2] = substrate: CCCCCCCC(=O)Oc1c(F)cc2c(C)cc(=O)oc2c1F; assay: Initial rate of hydrolysis of DiFMU octanoate, wild type; assay type: biochemical, Candida antarctica; conditions: other: wild type, 50 mM K-phosphate pH 7.0, room temperature
Excerpt: as §1, §2, §3

B1: Candida antarctica lipase B (CALB), wild type, SEQ ID NO: 2, L1/P317 (Moesziomyces antarcticus) (protein)
chain: LPSGSDPAFSQPKSVLDAGLTCQGASPSSVSKPILLVPGTGTTGPQSFDSNWIPLSAQLGYTPCWISPPPFMLNDTQVNTEYMVNAITTLYAGSGNNKLPVLTWSQGGLVAQWGLTFFPSIRSKVDRLMAFAPDYKGTVLAGPLDALAVSAPSVWQQTTGSALTTALRNAGGLTQIVPTTNLYSATDEIVQPQVSNSPLDSSYLFNGKNVQAQAVCGPLFVIDHAGSLTSQFSYVVGRSALRSTTGQARSADYGITDCNPLPANDLTPEQKVAAAALLAPAAAAIVAGPKQNCEPDLMPYARPFAVGKRTCSGIVTP
Which results are given for B1?
Km [1]: 410 ± 40 µM; kcat [1]: 5.08 ± 0.167 s⁻¹; kcat/Km [1]: 12300 M⁻¹ s⁻¹; Km [2]: 2.6 ± 0.3 µM; kcat [2]: 0.033 ± 0.0017 s⁻¹; kcat/Km [2]: 13000 M⁻¹ s⁻¹
